Measurements: US20220332804A1 (CSL INNOVATION, published 2022)

How the values were obtained:
Assay in all cases: SPR, antibody captured, C2 as analyte;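 further: biacore SPR at 37 °C, anti-C2 mAbs captured via goat anti-human IgG on CM5 chips, double-referenced sensorgrams fit to a 1:1 kinetic or steady-state model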
[1] = target: T1, human C2 K329A (human, UniProt P06681 21-752)
T1 sequence: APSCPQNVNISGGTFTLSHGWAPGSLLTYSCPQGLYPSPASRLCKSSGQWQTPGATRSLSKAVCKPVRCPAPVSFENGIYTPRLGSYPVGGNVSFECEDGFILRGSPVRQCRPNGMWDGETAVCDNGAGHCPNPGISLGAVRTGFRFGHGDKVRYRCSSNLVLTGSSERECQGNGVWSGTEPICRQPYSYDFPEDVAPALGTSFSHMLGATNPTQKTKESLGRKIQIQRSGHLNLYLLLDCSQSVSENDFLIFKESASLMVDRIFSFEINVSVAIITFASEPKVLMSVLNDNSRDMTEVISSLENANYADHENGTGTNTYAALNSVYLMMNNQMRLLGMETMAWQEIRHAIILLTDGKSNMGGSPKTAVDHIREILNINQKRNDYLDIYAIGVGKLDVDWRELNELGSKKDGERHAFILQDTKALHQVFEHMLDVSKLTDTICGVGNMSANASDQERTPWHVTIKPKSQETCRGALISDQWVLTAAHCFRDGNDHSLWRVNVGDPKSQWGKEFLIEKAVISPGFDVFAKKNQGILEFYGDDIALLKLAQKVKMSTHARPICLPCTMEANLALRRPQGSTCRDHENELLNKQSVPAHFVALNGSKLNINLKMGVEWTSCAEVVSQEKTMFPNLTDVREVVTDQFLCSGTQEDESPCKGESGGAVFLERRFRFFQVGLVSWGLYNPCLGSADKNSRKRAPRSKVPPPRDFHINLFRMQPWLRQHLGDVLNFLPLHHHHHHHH

[2] = target: T2, human C2 E324A (human, UniProt P06681 21-752)
T2 sequence: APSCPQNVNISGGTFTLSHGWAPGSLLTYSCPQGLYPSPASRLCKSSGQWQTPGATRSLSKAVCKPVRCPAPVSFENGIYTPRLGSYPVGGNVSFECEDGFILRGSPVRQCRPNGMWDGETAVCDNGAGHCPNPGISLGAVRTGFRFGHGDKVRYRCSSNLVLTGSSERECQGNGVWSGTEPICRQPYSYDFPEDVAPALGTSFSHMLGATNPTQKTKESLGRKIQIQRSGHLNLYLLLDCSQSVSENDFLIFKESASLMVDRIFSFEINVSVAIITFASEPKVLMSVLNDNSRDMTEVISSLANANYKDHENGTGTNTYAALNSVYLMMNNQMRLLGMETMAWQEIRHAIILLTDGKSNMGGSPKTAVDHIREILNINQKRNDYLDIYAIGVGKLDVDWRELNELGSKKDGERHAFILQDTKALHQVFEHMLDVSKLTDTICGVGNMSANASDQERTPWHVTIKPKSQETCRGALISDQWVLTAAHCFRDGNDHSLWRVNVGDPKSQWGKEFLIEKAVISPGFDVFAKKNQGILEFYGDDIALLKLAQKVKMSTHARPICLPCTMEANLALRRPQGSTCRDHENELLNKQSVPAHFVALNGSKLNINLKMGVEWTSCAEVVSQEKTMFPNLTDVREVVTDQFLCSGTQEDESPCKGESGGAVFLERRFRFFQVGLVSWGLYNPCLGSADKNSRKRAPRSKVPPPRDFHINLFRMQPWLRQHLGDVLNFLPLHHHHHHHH

[3] = target: T3, human C2 D419A (human, UniProt P06681 21-752)
T3 sequence: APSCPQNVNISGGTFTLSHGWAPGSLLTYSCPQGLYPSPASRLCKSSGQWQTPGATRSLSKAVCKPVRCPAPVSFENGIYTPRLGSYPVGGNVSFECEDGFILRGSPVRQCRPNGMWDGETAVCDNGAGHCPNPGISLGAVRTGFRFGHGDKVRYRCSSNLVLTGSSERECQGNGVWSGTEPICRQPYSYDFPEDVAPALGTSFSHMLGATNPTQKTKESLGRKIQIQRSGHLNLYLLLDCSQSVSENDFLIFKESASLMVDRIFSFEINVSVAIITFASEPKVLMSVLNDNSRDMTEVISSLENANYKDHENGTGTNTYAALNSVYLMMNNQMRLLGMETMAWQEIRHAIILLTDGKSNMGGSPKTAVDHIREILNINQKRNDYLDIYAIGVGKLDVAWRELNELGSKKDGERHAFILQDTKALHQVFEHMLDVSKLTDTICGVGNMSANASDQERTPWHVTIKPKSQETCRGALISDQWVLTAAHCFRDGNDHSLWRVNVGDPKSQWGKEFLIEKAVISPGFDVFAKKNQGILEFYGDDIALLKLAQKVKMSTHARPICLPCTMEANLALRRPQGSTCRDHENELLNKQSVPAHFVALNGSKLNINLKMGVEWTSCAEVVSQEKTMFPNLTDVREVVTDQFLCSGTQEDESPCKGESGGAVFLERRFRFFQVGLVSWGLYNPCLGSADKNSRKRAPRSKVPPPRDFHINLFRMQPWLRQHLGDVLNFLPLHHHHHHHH

[4] = target: T4, human C2 M316A (human, UniProt P06681 21-752)
T4 sequence: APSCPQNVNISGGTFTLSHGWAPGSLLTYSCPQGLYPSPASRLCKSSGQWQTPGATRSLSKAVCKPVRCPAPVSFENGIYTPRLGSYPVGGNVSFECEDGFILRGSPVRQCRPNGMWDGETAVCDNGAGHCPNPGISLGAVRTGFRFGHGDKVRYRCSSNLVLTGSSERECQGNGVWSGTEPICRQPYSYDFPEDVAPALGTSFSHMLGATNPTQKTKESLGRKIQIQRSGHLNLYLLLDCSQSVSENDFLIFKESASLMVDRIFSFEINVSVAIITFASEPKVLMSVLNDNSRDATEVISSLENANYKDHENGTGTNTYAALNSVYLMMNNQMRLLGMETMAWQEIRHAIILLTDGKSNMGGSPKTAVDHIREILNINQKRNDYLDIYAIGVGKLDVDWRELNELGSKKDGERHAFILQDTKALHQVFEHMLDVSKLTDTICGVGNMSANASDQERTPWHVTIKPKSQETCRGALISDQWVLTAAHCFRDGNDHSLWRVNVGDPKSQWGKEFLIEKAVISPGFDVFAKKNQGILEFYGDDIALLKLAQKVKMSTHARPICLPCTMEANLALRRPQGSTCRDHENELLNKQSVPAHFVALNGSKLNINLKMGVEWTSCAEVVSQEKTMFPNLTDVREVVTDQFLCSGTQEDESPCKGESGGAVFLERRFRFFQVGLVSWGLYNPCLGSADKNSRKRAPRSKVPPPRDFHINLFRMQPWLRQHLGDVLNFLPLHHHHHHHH

B1: RF16-226 (antibody, human IgG4 S228P, lambda)
heavy: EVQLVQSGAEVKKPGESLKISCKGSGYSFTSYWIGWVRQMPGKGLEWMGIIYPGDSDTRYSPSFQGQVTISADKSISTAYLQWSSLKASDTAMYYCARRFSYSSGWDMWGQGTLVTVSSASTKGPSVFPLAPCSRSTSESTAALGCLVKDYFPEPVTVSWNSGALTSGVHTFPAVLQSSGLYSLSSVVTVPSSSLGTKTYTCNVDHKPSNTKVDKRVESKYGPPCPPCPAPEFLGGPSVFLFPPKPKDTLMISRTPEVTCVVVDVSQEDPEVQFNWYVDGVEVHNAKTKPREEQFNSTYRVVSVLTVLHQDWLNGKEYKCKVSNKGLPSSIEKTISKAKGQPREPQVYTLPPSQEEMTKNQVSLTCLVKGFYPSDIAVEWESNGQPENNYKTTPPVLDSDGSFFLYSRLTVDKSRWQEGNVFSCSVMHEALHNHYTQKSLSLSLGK
light: SYELTQPPSVSVSPGQTARITCSGDALTSKYVAWYQQKSGLAPLLVIYEDTRRPSGIPAKFSGSSSGSVATLTISGAHGDDEADYYCYSTDASGHQRVFGGGTKLTVLSQPKAAPSVTLFPPSSEELQANKATLVCLISDFYPGAVTVAWKADGSPVKAGVETTKPSKQSNNKYAASSYLSLTPEQWKSHRSYSCQVTHEGSTVEKTVAPTECS
notes: pH-dependent anti-C2 antibody from a phage display library; also called WT
Work on B1 yielded a Kd [1] of 25.6 nM, a Kd [2] of 12.2 nM and a Kd [3] of 17.6 nM. The Kd [4] was 12.3 nM.
